The values that follow come from US6867179B1, “Methods of inducing hair growth and coloration” (Trustees of Boston University, priority 1994, dated 2005).

One experiment addresses T1, p75^NTR (Homo sapiens, UniProt P08138).
T1 sequence (P08138 29-427): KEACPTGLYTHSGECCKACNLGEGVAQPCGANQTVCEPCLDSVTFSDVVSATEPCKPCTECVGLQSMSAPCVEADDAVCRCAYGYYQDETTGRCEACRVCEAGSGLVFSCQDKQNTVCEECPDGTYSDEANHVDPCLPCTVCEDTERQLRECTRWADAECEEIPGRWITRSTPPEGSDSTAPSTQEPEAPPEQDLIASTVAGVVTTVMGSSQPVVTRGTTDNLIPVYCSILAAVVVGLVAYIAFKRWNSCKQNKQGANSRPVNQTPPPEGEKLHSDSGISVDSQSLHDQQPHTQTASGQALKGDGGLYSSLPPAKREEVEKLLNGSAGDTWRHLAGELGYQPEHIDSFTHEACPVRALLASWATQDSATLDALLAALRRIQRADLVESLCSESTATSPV
The conditions noted are these: lysine 34 replaced by alanine; cited from earlier work.

A further experiment deals with p75. The experiment is described as follows: Regulation of p75 mRNA in melanocytes by agents that increase cAMP. The class given is cell-based, human. The conditions noted are these: forskolin 50 μM or IBMX 100 μM, within 24 hours. The method, then: MC were stimulated with growth factor-containing medium supplemented with forskolin (50 μM) or IBMX (100 μM) that increase cAMP levels. […] To determine if ultraviolet (UV) irradiation that induces cutaneous injury upregulates p75, MC were sham- or UV-irradiated with solar simulated light (30 mJ/cm^2, metered at 285+5 nm). […] Furthermore, 48 hours after irradiation, cAMP levels were >70% decreased in UV- vs sham-irradiated cells.

Consider “mutant NGF: NGF in which lysine (K) at position 34 is replaced by alanine (A)”, for which, in the experiment with p75^NTR, the “Lowering of affinity for p75NTR relative to NGF” value is reported as 50%.

As for `CC(C)Cn1c(=O)n(C)c(=O)c2[nH]cnc21` [IBMX], the “p75 mRNA upregulation” value with p75 is “substantially inhibited this upregulation”.
